According to patent US20070116694A1, “Inhibitor of interaction of granzyme b with golgin-160” (Daiichi Pharmaceutical Co., Ltd., priority 2003, published 2007):

Target: T1, Granzyme B (Homo sapiens, UniProt P10144)
T1 construct: purchased Calbiochem 368042
Experiment: in vitro protease assay (decomposition by Granzyme B)
Format: biochemical
Conditions: Granzyme B 0.05 μg, substrate protein 0.2 μg, 37° C. for 2 hours, SDS-PAGE, Coomassie Brilliant Blue
Method: An in vitro protease assay was carried out to confirm in an experiment whether or not Golgin-160 is decomposed by Granzyme B. Granzyme B, Human, cell culture-derived (Calbiochem, Catalog No. 368042) was purchased, and this product was used as Granzyme B. Granzyme B (0.05 μg) was added to 10 μl of a cleavage buffer containing TRX-Golgin-160, procaspase-3, or TRX-LAG 3 (0.2 μg each) (wherein the buffer consisted of 50 mM Hepes-KOH (pH 7.4), 2 mM EDTA, 1% NP-40, 0.1 M NaCl, and 10 mM DTT) (Kam C. M., Huding D., et al., “Granzymes (lymphocyte serine proteases): characterization with natural and synthetic substrates and inhibitors” in Biochim. Biophys. Acta, 1477:307-323 (2000)). The obtained mixture was incubated at 37° C. for 2 hours. After completion of the incubation, 2×SDS sample buffer (125 mM Tris-HCl (pH 6.8), 4% (w/v) sodium dodecyl sulfate, 20% (v/v) glycerol, 0.01% (w/v) bromophenol blue, and 20% (v/v) 2-mercaptoethanol) was added at an equivalent amount to each reaction solution, and the obtained mixture was heated for 5 minutes. Thereafter, the obtained reaction mixture was separated by SDS-PAGE and then stained with Coomassie Brilliant Blue. Thus, a protein and a decomposition product thereof were observed.

T1 sequence (P10144 21-247): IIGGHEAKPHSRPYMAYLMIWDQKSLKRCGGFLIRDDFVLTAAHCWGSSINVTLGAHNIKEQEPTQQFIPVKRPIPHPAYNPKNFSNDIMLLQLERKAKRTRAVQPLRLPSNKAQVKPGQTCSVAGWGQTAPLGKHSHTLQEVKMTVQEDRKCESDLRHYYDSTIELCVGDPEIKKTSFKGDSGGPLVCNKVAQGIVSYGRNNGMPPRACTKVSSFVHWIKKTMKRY

B1: Procaspase-3: Recombinant Human procaspase-3 (MBL/BioVision), positive control in the in vitro protease assay of Granzyme B (protein, UniProt P42574 1-277, looked up)
pro-form: MENTENSVDSKSIKNLEPKIIHGSESMDSGISLDNSYKMDYPEMGLCIIINNKNFHKSTGMTSRSGTDVDAANLRETFRNLKYEVRNKNDLTREEIVELMRDVSKEDHSKRSSFVCVLLSHGEEGIIFGTNGPVDLKKITNFFRGDRCRSLTGKPKLFIIQACRGTELDCGIETDSGVDDDMACHKIPVEADFLYAYSTAPGYYSWRNSKDGSWFIQSLCAMLKQYADKLEFMHILTRVNRKVATEFESFSFDATFHAKKQIPCIVSMLTKELYFYH
modifications: pro-form
notes: Recombinant Human procaspase-3 (MBL/BioVision), positive control in the in vitro protease assay of Granzyme B
B1 was tested, and the “decomposition by Granzyme B” value was “decomposed”.
